Patent publication US11325966

What was measured:
Test in all cases: cell-based or functional assay
[1] = biological target: HIV-1 envelope (Env) of pseudovirus R2184.c04 (HIV-1)
[2] = biological target: HIV-1 envelope (Env) of pseudovirus 3016.v5.c45 (HIV-1)
[3] = biological target: HIV-1 envelope (Env) of pseudovirus 211-9 (HIV-1)
[4] = biological target: HIV-1 envelope (Env) of pseudovirus Ce0393_C3 (HIV-1)
[5] = biological target: HIV-1 envelope (Env) of pseudovirus YU2_N280Y (HIV-1) (UniProt P35961)
[6] = biological target: HIV-1 envelope (Env) of pseudovirus 231965.c01 (HIV-1)
[7] = biological target: HIV-1 Env of pseudovirus R3265.c06 (HIV-1)
[8] = biological target: HIV-1 Env of pseudovirus X2088_c9 (HIV-1)
[9] = biological target: HIV-1 Env of pseudovirus HIV-001428-2.42 (HIV-1)
[10] = biological target: HIV-1 Env of pseudovirus 211-9 (HIV-1)
[11] = biological target: HIV-1 Env of pseudovirus TRO.11 (HIV-1)
[12] = biological target: HIV-1 Env of pseudovirus P0402_c2_11 (HIV-1)
[13] = biological target: HIV-1 Env of pseudovirus CNE53 (HIV-1)
[14] = biological target: HIV-1 Env of pseudovirus R2184.c04 (HIV-1)
[15] = biological target: HIV-1 Env of pseudovirus Du156.12 (HIV-1)
[16] = biological target: HIV-1 Env of pseudovirus 6952.v1.c20 (HIV-1)
[17] = biological target: HIV-1 Env of pseudovirus ZM247v1(Rev-) (HIV-1)
[18] = biological target: HIV-1 Env of pseudovirus 9004SS_A3_4 (HIV-1)
[19] = biological target: HIV-1 Env of pseudovirus HIV-0013095-2.11 (HIV-1)
[20] = biological target: HIV-1 Env of pseudovirus X2131_C1_B5 (HIV-1)
[21] = biological target: HIV-1 Env of pseudovirus 191821_E6_1 (HIV-1)
[22] = biological target: HIV-1 Env of pseudovirus 3301.v1.c24 (HIV-1)
[23] = biological target: HIV-1 Env of pseudovirus 6244_13_B5_4576 (HIV-1)
[24] = biological target: HIV-1 Env of pseudovirus ZM135M.PE10a (HIV-1)
[25] = biological target: HIV-1 Env of pseudovirus BF1266.431a (HIV-1)
[26] = biological target: HIV-1 Env of pseudovirus CAP45.2.00.G3 (HIV-1)
[27] = biological target: HIV-1 Env of pseudovirus CNE58 (HIV-1)
[28] = biological target: HIV-1 Env of pseudovirus 246F C1G (HIV-1)
[29] = biological target: HIV-1 Env of pseudovirus 1012_11_TC21_3257 (HIV-1)
[30] = biological target: HIV-1 Env of pseudovirus A07412M1.vrc12 (HIV-1)
[31] = biological target: HIV-1 Env of pseudovirus CNE8 (HIV-1)
[32] = biological target: HIV-1 Env of pseudovirus 62357_14_D3_4589 (HIV-1)
[33] = biological target: HIV-1 Env of pseudovirus 191084 B7-19 (HIV-1)
[34] = biological target: HIV-1 Env of pseudovirus BJOX009000.02.4 (HIV-1)
[35] = biological target: HIV-1 Env of pseudovirus ZM109F.PB4 (HIV-1)
[36] = biological target: HIV-1 Env of pseudovirus 3103.v3.c10 (HIV-1)
[37] = biological target: HIV-1 Env of pseudovirus RHPA4259.7 (HIV-1)
[38] = biological target: HIV-1 Env of pseudovirus CNE52 (HIV-1)
[39] = biological target: HIV-1 Env of pseudovirus Ce0393_C3 (HIV-1)

## BG1 (antibody)
[1]
  IC50 in TZM-bl assay: > 30 mg/L
  IC80 in TZM-bl assay: > 30 mg/L
[2]
  IC50 in TZM-bl assay: > 30 mg/L
  IC80 in TZM-bl assay: > 30 mg/L
[3]
  IC50 in TZM-bl assay: 2.85 mg/L
  IC80 in TZM-bl assay: 12.9 mg/L
[4]
  IC50 in TZM-bl assay: > 30 mg/L
  IC80 in TZM-bl assay: > 30 mg/L
[5]
  IC50 in TZM-bl assay: 9 mg/L
  IC80 in TZM-bl assay: 23 mg/L
[6]
  IC50 in TZM-bl assay: > 30 mg/L
  IC80 in TZM-bl assay: > 30 mg/L

B1: 10-1074 (antibody, V domains shown)
VH: QVQLQESGPGLVKPSETLSVTCSVSGDSMNNYYWTWIRQSPGKGLEWIGYISDRESATYNPSLNSRVVISRDTSKNQLSLKLNSVTPADTAVYYCATARRGQRIYGVVSFGEFFYYYSMDVWGKGTTVTVSS
VL: SYVRPLSVALGETARISCGRQALGSRAVQWYQHRPGQAPILLIYNNQDRPSGIPERFSGTPDINFGTRATLTISGVEAGDEADYYCHMWDSRSGFSWSFGGATRLTVL
[7]
  IC50 in TZM-bl assay: > 10 mg/L
  IC80 in TZM-bl assay: > 10 mg/L
[8]
  IC50 in TZM-bl assay: 0.003 mg/L
  IC80 in TZM-bl assay: 0.01 mg/L
[9]
  IC50 in TZM-bl assay: 0.035 mg/L
  IC80 in TZM-bl assay: 0.126 mg/L
[10]
  IC50 in TZM-bl assay: 0.065 mg/L
  IC80 in TZM-bl assay: 0.403 mg/L
[11]
  IC50 in TZM-bl assay: 0.011 mg/L
  IC80 in TZM-bl assay: 0.039 mg/L
[12]
  IC50 in TZM-bl assay: 0.008 mg/L
  IC80 in TZM-bl assay: 0.024 mg/L
[13]
  IC50 in TZM-bl assay: 0.013 mg/L
  IC80 in TZM-bl assay: 0.058 mg/L
[14]
  IC50 in TZM-bl assay: > 10 mg/L
  IC80 in TZM-bl assay: > 10 mg/L
[15]
  IC50 in TZM-bl assay: 0.01 mg/L
  IC80 in TZM-bl assay: 0.036 mg/L
[16]
  IC50 in TZM-bl assay: 0.023 mg/L
  IC80 in TZM-bl assay: 0.086 mg/L
[17]
  IC50 in TZM-bl assay: 0.042 mg/L
  IC80 in TZM-bl assay: 0.146 mg/L
[18]
  IC50 in TZM-bl assay: 0.012 mg/L
  IC80 in TZM-bl assay: 0.032 mg/L
[19]
  IC50 in TZM-bl assay: > 10 mg/L
  IC80 in TZM-bl assay: > 10 mg/L
[20]
  IC50 in TZM-bl assay: 0.014 mg/L
  IC80 in TZM-bl assay: 0.056 mg/L
[21]
  IC50 in TZM-bl assay: > 10 mg/L
  IC80 in TZM-bl assay: > 10 mg/L
[22]
  IC50 in TZM-bl assay: 0.018 mg/L
  IC80 in TZM-bl assay: 0.049 mg/L
[23]
  IC50 in TZM-bl assay: 0.091 mg/L
  IC80 in TZM-bl assay: 0.38 mg/L
[24]
  IC50 in TZM-bl assay: 0.061 mg/L
  IC80 in TZM-bl assay: 0.263 mg/L
[25]
  IC50 in TZM-bl assay: > 10 mg/L
  IC80 in TZM-bl assay: > 10 mg/L
[26]
  IC50 in TZM-bl assay: > 10 mg/L
  IC80 in TZM-bl assay: > 10 mg/L
[27]
  IC50 in TZM-bl assay: 0.165 mg/L
  IC80 in TZM-bl assay: 0.476 mg/L
[28]
  IC50 in TZM-bl assay: 0.035 mg/L
  IC80 in TZM-bl assay: 0.119 mg/L
[29]
  IC50 in TZM-bl assay: 0.011 mg/L
  IC80 in TZM-bl assay: 0.047 mg/L
[30]
  IC50 in TZM-bl assay: 0.011 mg/L
  IC80 in TZM-bl assay: 0.037 mg/L
[31]
  IC50 in TZM-bl assay: > 10 mg/L
  IC80 in TZM-bl assay: > 10 mg/L
[32]
  IC50 in TZM-bl assay: > 10 mg/L
  IC80 in TZM-bl assay: > 10 mg/L
[33]
  IC50 in TZM-bl assay: 0.026 mg/L
  IC80 in TZM-bl assay: 0.108 mg/L
[34]
  IC50 in TZM-bl assay: > 10 mg/L
  IC80 in TZM-bl assay: > 10 mg/L
[35]
  IC50 in TZM-bl assay: > 10 mg/L
  IC80 in TZM-bl assay: > 10 mg/L
[36]
  IC50 in TZM-bl assay: 0.024 mg/L
  IC80 in TZM-bl assay: 0.061 mg/L
[37]
  IC50 in TZM-bl assay: 0.023 mg/L
  IC80 in TZM-bl assay: 0.083 mg/L
[38]
  IC50 in TZM-bl assay: 1.99 mg/L
  IC80 in TZM-bl assay: 9.76 mg/L
[39]
  IC50 in TZM-bl assay: > 10 mg/L
  IC80 in TZM-bl assay: > 10 mg/L
